This passage reports Kd results from paper PMC12561426, “Dissecting the Interplay Between NRF2 and BACH1 at CsMBEs”.

Data set [1] has as its target T1, NRF2DBD (UniProt Q16236 451-567).
T1 sequence: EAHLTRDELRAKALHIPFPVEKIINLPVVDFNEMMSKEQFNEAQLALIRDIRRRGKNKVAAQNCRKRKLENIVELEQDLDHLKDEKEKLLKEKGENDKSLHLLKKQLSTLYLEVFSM
As to the kind of experiment: EMSA; apparent; homodimer; 150 mM NaCl, 50 mM HEPES pH 7.9, 10% glycerol, 1 mM TCEP, 1 mM DTT, 2 mM MgCl2; 3 nM DNA; TEV and 3C 50 ug/mL each, 4 h 25 °C; competition then O/N 4 °C; gels 4 °C in 1X TBE. To be noted: protein: recombinant; tags: C-terminal 3C-6xHis; chain copies: 2; label: 5' fluorescein on forward strand; blunt. Background: A gel shift assay detects complexes by their altered migration in electrophoresis.

Data set [2] concerns the target sMafGDBD (UniProt O15525 1-162). The data set is described as above. As to conditions: protein: recombinant; tags: N-terminal 6xHis-TEV; chain copies: 2; label: 5' fluorescein on forward strand; blunt.
In data set [3] the target is BACH1DBD (UniProt O14867 511-627). The experiment in a line: EMSA; apparent; homodimer concentration; 150 mM NaCl, 50 mM HEPES pH 7.9, 10% glycerol, 1 mM TCEP, 1 mM DTT, 2 mM MgCl2; 3 nM DNA; TEV and 3C 50 ug/mL each, 4 h 25 °C; competition then O/N 4 °C; gels 4 °C in 1X TBE. As to conditions: protein: recombinant; tags: C-terminal 3C-6xHis; chain copies: 2; label: 5' fluorescein on forward strand; blunt.
Sequence of BACH1DBD (O14867 511-627): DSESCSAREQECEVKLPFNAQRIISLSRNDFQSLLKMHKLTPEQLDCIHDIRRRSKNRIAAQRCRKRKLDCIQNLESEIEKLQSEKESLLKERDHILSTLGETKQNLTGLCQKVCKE

B1: HMOX1 CsMBE 30-mer (dsDNA)
DNA 1: CTCGGGACCGTGACTCAGCAGGAAAAACAC
DNA 2: GTGTTTTTCCTGCTGAGTCACGGTCCCGAG
For the molecule B1, the figures for the Kd in data set [1], in data set [2] and in data set [3] were roughly 590 nM, roughly 203 nM and roughly 802 nM, respectively.
